Measurements from the DeepSol protein solubility set.

Assay: soluble on expression in E. coli; label from the status in PepcDB or PDB records

| Sequence | soluble on expression in E. coli |
| --- | --- |
| MDDPSITPTEKCRFYLGITLRDDTKARPVPGIMQIPGGRYAVFRHTGSYSSLHKVYRSIYEEWFPKSKYHPQSTFSFEMYMNHPSTTETSELLTEIYIPVIRK | not soluble |
| MTATASDDEAVTALALSAAKGNGRALEAFIKATQQDVWRFVAYLSDVGSADDLTQETFLRAIGAIPRFSARSSARTWLLAIARHVVADHIRHVRSRPRTTRGARPEHLIDGD | soluble |
| MHEMRELAQGSLKEMRTLIWQLRPAGLEKGLLPALKQYGESLGLKIREQVTGVRDLPRVVEEALWRIGQEALNNVSKHANVREATIYFKVTEKNVSLEIVDQGNGFVEKNIKEKKSLGMTTMRERVELVGGTIKIVSDKKRTSVKVNVPL | not soluble |
| MGSDKIHHHHHHMVHVKMKGSKMLFEALLKEGVDTIFGIPGGAIINVYDELCNYEDKINFYLFRHEQGATHAADGYARVTGKPGVVIVTSGPGATNTVTGIATAYMDSIPIVVITGQVPTSFIGTDAFQEVDVTGITMPITKHNHLVTSIEELPYAIKEMFYVATTGRPGPVLLDFPKDIQTAEGEFNYPDTVEIPGYKPTVKGHPKQIKKAVELLKESKRPVVIVGGGANLSGAMDLVNQFIDKFKVPAVSTLMGRGVNPSDEKLYYEGIGMHGTYYGNYAVANADLIIALGVRFSDRILGNPRTFAKNARIVHVDIDPAEIGKNVRVDVPIVGDLKSVLEEFLKYEIETDFSDWIEELQEIKKKYPLTYKRDGKLIKPQYVVEKVNEVFPDDTVVVADVGQNQMWVAQFYKFKHQRSFLCSGGLGTMGYALPAGIGAKIGAPDKEVVVFAGDGGFQMNIQELMTIKRYNLPVKIIVMDNKALGMVRQWQQLFFNCRYSATILSDNPDFAKIAEAVGIKAMRIEKPDQVDEAIEKLAKSKEPMLIHAVVDPAENVLPMVPPGGDVGTPLIEAPYDETFVERVLKVIEESRRGDER | not soluble |
| HMMQSWSAPAIPVVPGRGPALRLFDSADRQVRPVTPGPTATMYVCGITPYDATHLGHAATYLTFDLVHRLWLDAGHTVQYVQNVTDVDDPLFERAERDGIDWRTLGDRETQLFREDMAALRVLPPHDYVAATDAIAEVVEMVEKLLASGAAYIVEDAEYPDVYFRADATAQFGYESGYDRDTMLTLFAERGGDPDRPGKSDQLDALLWRAERPGEPSWPSPFGRGRPGWHVECSAIALTRIGTGLDIQGGGSDLIFPHHEYSAAHAESVTGERRFARHYVHTGMIGWDGHKMSKSRGNLVLVSQLRAQGVDPSAIRLGLFSGHYREDRFWSNEVLDEANARLARWRSATALPEAPDATDVIARVRQYLADDLDTPKALAALDGWCTDALSYGGHDTESPRLVATTVDALLGVDL | soluble |
| LKLTPRQYNDVYEVNYDFINNVRYLMDDVVRGYDYALERYYDFLDVRNDDLRWILSSAQYRRFMRAEHFYRPIYAHENKWHFRIYLVYNNVNFFYYGKPHHYASYCGGHYRTHFNNVSYYKTHYRDHYRHDVYDGHYRIRHDRMTYDMHRRRDFNIAVRPPQKEHHRPATPPQTRPNRPQIHPDRP | not soluble |
| MVTPSLRLVFVKGPREGDALDYKPGSTIRVGRIVRGNEIAIKDAGISTKHLRIESDSGNWVIQDLGSSNGTLLNSNALDPETSVNLGDGDVIKLGEYTSILVNFV | soluble |
| MKIVRASRDQSAPVYGPRAGSQCMSNCFTFLHTCYLMGIDPVLDTTSLDAVLDSGARLDAIADEKVKRQALTDHPYRLGTEIPTVIETPAGITGHALSRPFNGTAETQDLGGYKCLGILDFLTYARGKPLPVYIIVTVGVHTRGVIVARGATYVFDPHTTDLSAEAAVYVCDDFTEAISALSFFTEMIGDFYYDAVLVYFTRCRTTLISPSELLVQIMDQYKDPDIDASVMS | soluble |
| MNALPPARRLRVASIGGGFSGAALAWHLARAHRPERLSISVIEPRLALGGGLAYSSEEPSHRVNVPAVRMSMAPDDPQHFVRWLAGSGELERDADAIWKNGDAYPRRRVFGRYVAEHLAPYLASGAVRHVGGPATGVTREANGAGWTVQTSAGPVIADIVVLAATHPAPAIPAALASLAEASGFVADPYAASALAGIGLDASVLIVGSGLTSADMVTELDRRGHRGRVLALSRRGLRSRGHPDVRGEPFGDFASAPATSALGLLKSIRATLAAAREANVNWQSVFDQLRLQGPVLWAALAPSERARLVRQLRVFWDVHRFRIAPQIASVLDRRQTAGTFDTIAARLVASNDEGENLAVSFQRRGQTRIETARFDAVINTTGPAHGQALQLNPALRSLAEAGLIRSDAYGLGIETSLDSRAIGWDGEAVAGLFVAGPLARGTFGELMGLPEVARHAQMVAAEIARLVDRFPSAEAVGANAGDVATARLEHHHHHH | not soluble |
| MAAVTELPKMNQELAGAVREGLELKKVETTEKNVLPTKEDVAEEKQHVERIHEIEHFDSTKLHSTPVKEKIVLPSADDIKQEKQHLELTDKINNFPSENLKKTETIEKNVLPSPTDVAREKTLQMAASFDKSALHHVETIVSTDVRVTEAQ | soluble |
| MVAAAAATGILSLCGSPALADSHADGAATNSPGAVSGNALQVPVDVPVNACGNTVDVIAALNPAFGNECENASDEKTDGHGGGYGEDASSSSSSSTSASSSGSHADGATEGSPGVGSGNNAQVPVDVPVNLCGNTVDVIAALNPVFGNKCENDAEEPPGYGEEEPPPPTTPPGYGEEEPPPPTHEEPPPPSGEEEPPPPSEEEHTPPAPQTEQPPALAETGSEGTLGAAAAGAVLIAGGAILYRRGRALSGRLEHHHHHH | not soluble |
| LVPRGSHMTNDTSGVLTIATTHTQARYSLPEVIKAFRELFPEVRLELIQGTPQEIATLLQNGEADIGIASERLSNDPQLVAFPWFRWHHSLLVPHDHPLTQISPLTLESIAKWPLITYRQGITGRSRIDDAFARKGLLADIVLSAQDSDVIKTYVALGLGIGLVAEQSSGEQEEENLIRLDTRHLFDANTVWLGLKRGQLQRNYVWRFLELCNAGLSVEDIKRQVMES | soluble |
| MSSQKSSHHKADSKMEQDNNRKAWISQPSGLNFVWGGDSRYWVIPKEPRMPAELKMVSWLEVTGSFDKIEPGKTYRIGFKISFKPDATGWDKAPVFMSAKIGKKGKTVWKRIKSVSQNFGILKGGSEPVNIPDESDGLFEILVSPTALNQDTKLQFGLYEVWTGRWKTGLLIHEAFVQEV | soluble |
| MKKILALLVIAPLLVSCSGNKNQVENEVFVKDTNGFEILMGQFAHNIENIWGLKEVLIAGPKDYVKYTDQYQTRSHINFDAGTITIETIATTNPAAHLRQAIITTLLMGDDPGSIDLYSDVNDIQISKEPFLYGQVLDNNGEPIRWEWRAAHFADYLLQNKMQTRTSGLHVISFVTIQLVPNHLDKRAHKYLPLVRKSAARYGVEESLILAIMQTESSFNPYAVSRSDALGLMQVVQHTAGKDVFKLKGKSGQPSRSYLFDPENNIDAGTAYLSILQNTYLGGIQNATSRRYAVITSYNGGAGSVLRVFHSDKNKAVGIINTMSPGDVFQTLTTKHPSGESRRYLVKVNSAQKNYRRY | not soluble |
| MSLGECPEYGKVKWIGNIYCHKYDEATTTLLSISTGTQSLGQDLKQRQAQLSIAKLTALAAEVQDLEKLNEIQTELDLIDGQILLSQELQESTLNPLFKDFTTYRTLFKYLSDAVKRRESLSVPHMIELFTLLNQDTSYGFALSILAIDHTLPTEVKKYCEYQIWRRCLLSDENAVRQTLRVFFKQQFYHQSIELPIIDNLANEKLITDSYLDGMYHGLTDLNKLASDVKREVALFANSNLDVTMLQSIIGEINEETGNQCVINYATNTIETSPTSEGHHHHHH | soluble |
| MGSDKIHHHHHHQVAYFMSFAGNETFIRELVKQFGSDEVLIVYKTNVKENVLQLQQGHIIKHAIEFKKFQVTSFVKGIKLARVTLFDNYYPELSAINKTKKDYFIQMWHANGAIKAFGWEDPSTYHRSVEDQQRFQRVYDSFDQIVVGSEKMADVFQRSWHVASDKIDRIGYPRTDKYFEESWIEKARKKIQTKLPELTQKRVILYAPTYRKDVSFSLPDDWRKIKVPQDAVLIVRLHPHLANVERQIVDASPDRVIMVDHFISTQELLCVADTLITDYSSIAFDFSLLDNARSVIFFTYDLEEFERTVGIQASFKAAFLNQMVNTVEQLNDAILFGNSDKNVIHKLNQQWNTLNDGHSSARLIKQVKERCTDE | not soluble |
| AHHHHHHGSKVYYPGREWPEEYKRVLEKMKEIIDPVTGDNILDSGVVAGLEVKDRTLKVWLRFESQAEYNILGGAAMAYSKIVGDIMEKFALVMFDNVYVYDLRNNIVGVFEKKK | not soluble |
| MSLYKVLALDLDGTVLSDDHTIHPQVKDAIRAAQQHCHVLIVTGRHHTAARPYYDELGLTTPIICCNGTYVYDYASETVLEHNAIDKQDALTFIDLAQEFQLKLVMYIKDAMTYSQRSPIAYMQALEKWAQAASLTHPPQIYAIDSFHQTARDSEFVWKFVVEGLPSSVERLLEHPWVNAHFNGERSWSNRIDFAAKGNSKGLRLAQYVAQLGYAANHVMAIGDNHNDISMLRYAGHGVAMANADDTVKSYARSLCSTDNNHAGLAQLIREHIQGEGHHHHHH | soluble |
| MHLAKERSSVSGTLRVGDRSPRIAEVRTALTRLGLLEGTTKNLEQTKSDTFTDSETLFDEDLALALQGFQQARGIIASGEINEITLKLLREASYSLGARVLSFEPNNIFVGDDVVQLQHQLQELGFYTDRVDGRFGELTYTSLVNYQLNYGLNPDGICGPETIRAFGRLGRRITGGSPHALRERERVRDAGPMLAGKRVVIDPGFGGADKGQVVRGPYGDITEEEIIWDLAGRIEGRMIAAGMETIVSRPRQDSPSLKGRADIANAFGADVMISLQCDKYPNDKANGVASFYFGSEMGSSSLTGEMLSGFIQREISARTDLVNCGNHGRTWDLLRITEMPTVEVVLGYLTNPHDVAILTDPEQRDAIAEAIVVAVKRLYLLDDDDQPTGTYRFSEMLEQGLL | not soluble |
| MIGRERMTVASQRLIAERTYELTLSGRLVQEMRQPGQFVHVKVAASADPLLRRPLSLCHIDHKQGQCTIIYRQEGKGTALLAQKQPGDTVDVLGPLGNGFPLEAAPADSRALLVGGGIGVPPLYELAKQLTKRGVKVVSVLGFQTKAAVFYEEEFAAFGETHVATDDGSHGTAGRVTDVIEARSLEFDVLYACGPKPMLRALAERFPNRPVYLSLEERMGCGVGACFACVCHVPGSETAYKKVCSDGPVFRAGEVVL | soluble |
| MGSDKIHHHHHHMTLTTKTIHVIGASFAGLAFVDKYKDLNPDSQIILIDKESCPNYIPNGINQLFRGDIQDLSDAMWGRACLAAQIESNHRFIQAEVLAIEAPSNTLLLKDSQGRVFEEGYETLVCAMGASPQSHYIETSQTNKVLVTKYYEESQASLKLIEASQEVLVIGAGLIGLDLAYSLSLQGKRVKLIEAAERPDFYQTDAELIAPVMAEMSTHHVTFINNKRVTAIHEIEGKVVAHTEQGDTFQGDLAILAINFRPNTHLLQGQVACALDKTILVNENLQTSQANIYAIGDMVSLHFGILGMDYYTPLINQAMKTGQALALHLAGYPIPPLQTVKVLGSSHFDYYRASVGVTEEEAELYMDTCSYLYQNGDSKNLFWLKLIARKTDGILIGAQLLSKTNALVIANQLGQALALKVTDADLAFQDFLFLQGHSDLAYHLHEACLKLFEKRLRHED | not soluble |
